# Reference: patent US20230054956A1 (VANDERBILT UNIVERSITY, published 2023)
# B1: NORO-329A (antibody, V domains shown)
# VH: QVQLVESGGGLVKPGGSLRLSCAASGFTFSDYYMSWIRQAPGKGLEWISYISSSFGSTDYAGSMKGRFTISRDNAKNSLYLQMNSLRAEDTAVYYCARYNYYGSGSFVFDYWGQGTLVTVSS
# VL: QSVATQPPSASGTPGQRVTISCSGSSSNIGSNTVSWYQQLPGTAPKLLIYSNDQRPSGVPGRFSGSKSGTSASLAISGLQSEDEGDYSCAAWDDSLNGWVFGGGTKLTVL
# B2: NORO-115 (antibody, V domains shown)
# VH: QVQLVESGGGLVKPGGSLRLSCTASGITISGYYMSWIRQAPGKGLEWIVYINTSGRTIYYADSVKGRFSVSRDNAKESLYLQMDSLTVDDTGIYYCARDRLPASGSHWFHPWGQGTLVTVSS
# VL: DIVMTQSPDSLAVSLGGRATINCKSSQSVLYTSDNKNYLAWYQQQPGQPPKLLISWASTRESGVPDRFSGSGSGTDFTLTISNLQAEDVAVYYCQQYYNSPLAFGGGTKVEIK
# Legend:
# [1] = biological target: GII.4 Houston 2002 (ABY27560.1) VLPs (human norovirus GII.4 Houston 2002, UniProt P54635 1-539); test: ELISA, VLP
# [2] = biological target: GII.4 Sydney 2012 virus-like particles (VLPs), based on strain AFV08795.1 (human norovirus GII.4 Sydney 2012, UniProt P54635 1-538, The particle is a multimeric assembly of VP1 with a little VP2 inside; one VP1 chain is given.); test: indirect ELISA, VLP coated
Binder,fold higher binding EC50 than to GII.4 Sydney 2012 VLPs [1] [fold],EC50 [2] [µg/mL]
B1,> 10,0.2
B2,> 10,0.1
